The supplement of paper PMC7877785
± gives the uncertainty stated by the source.

Assay: self-splicing fitness, log relative to wild type (ln ratio); higher = more splicing; Tetrahymena group I intron in knt gene, E. coli kanamycin selection, DiMSum; sequences stand for … in CUCUCU…GGAGGGAAAAGUUAUCAGGCAUGCACCUGGUAGCUAGUCUUUAAACCAAUAGAUUGCAUCGGUUUAAAAGGCAAGACCGUCAAAUUGCGGGAAAGGGGUCAACAGCCGUUCAGUACCAAGUCUCAGGGGAAACUUUGAGAUGGCCUUGCAAAGGGUAUGGUAAUAAGCUGACGGACAUGGUCCUAACCACGCAGCCAAGUCCUAAGUCAACAGAUCUUCUGUUGAUAUGGAUGCAGUUCACAGACUAAAUGUCGGUCGGGGAAGAUGUAUUCUUCUCAUAAGAUAUAGUCGGACCUCUCCUUAAUGGGAGCUAGCGGAUGAAGUGAUGCAACACUGGAGCCGCUGGGAACUAAUUUGUAUGCGAAAGUAUAUUGAUUAGUUUUGGAGUACUCGUGGUCG
Procedure, shortened: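 Library with all eight P1ex-region intron nucleotides randomised, intron inside the knt kanamycin-resistance gene on pET-22b(+), in E. coli BL21(DE3). Cells grew overnight at 37°C or 30°C on LB agar with or without 25 μg/mL kanamycin (plus 100 μg/mL carbenicillin, 50 μM IPTG, 0.2% rhamnose), in six replicate transformations. Pooled colonies were amplicon-sequenced on Illumina HiSeq 2500. DiMSum fitness is the error-weighted combination of wild-type-normalised replicate fold changes, kanamycin versus none.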

Sequence | self-splicing fitness (ln) (30 °C) | self-splicing fitness (ln) (37 °C)
UUAAAGCAAUAUUACGGCGA | 0.464 ± 0.17 | 0.659 ± 0.21
CGGAAGCAAUAUUACGACAC | – | -1.66 ± 0.38
AGUGAGCAAUAUUACGAGUU | -2.21 ± 0.18 | -1.28 ± 0.18
ACGGAGCAAUAUUACGUACU | -1.69 ± 0.091 | -2.32 ± 0.16
ACGAAGCAAUAUUACGGGAU | -3.47 ± 0.13 | -1.8 ± 0.14
AUAAAGCAAUAUUACGCAGA | -1.87 ± 0.093 | -0.796 ± 0.11
UGGCAGCAAUAUUACGGGUC | -3.28 ± 0.29 | -1.28 ± 0.28
AAGCAGCAAUAUUACGUUAG | -3.74 ± 0.18 | -2.52 ± 0.15
CCCUAGCAAUAUUACGGCCA | -2.88 ± 0.39 | -2.19 ± 0.26
AACUAGCAAUAUUACGUCAA | -2.66 ± 0.18 | -2.13 ± 0.15
ACUAAGCAAUAUUACGAGAA | -2.46 ± 0.28 | -2.37 ± 0.26
GACAAGCAAUAUUACGUGAC | -1.47 ± 0.096 | -1.42 ± 0.12
AACAAGCAAUAUUACGAUAU | -1.42 ± 0.098 | -1.03 ± 0.12
GCCCAGCAAUAUUACGUUUA | -1.7 ± 0.079 | -0.893 ± 0.078
GUACAGCAAUAUUACGCCUA | -1.06 ± 0.099 | -0.254 ± 0.09
GACAAGCAAUAUUACGCGUU | -4.47 ± 0.34 | -3 ± 0.35
CUUGAGCAAUAUUACGUUCG | -3.19 ± 0.3 | -1.71 ± 0.21
CGCGAGCAAUAUUACGUUUA | -3.98 ± 0.25 | -3.3 ± 0.28
AACAAGCAAUAUUACGGCCG | -0.739 ± 0.12 | 0.121 ± 0.15
AUCGAGCAAUAUUACGACGA | -0.908 ± 0.099 | -0.324 ± 0.13
AUGAAGCAAUAUUACGUCCU | -0.113 ± 0.093 | 0.0551 ± 0.11
GCAUAGCAAUAUUACGGAUC | -2.47 ± 0.21 | -1.63 ± 0.18
AGUAAGCAAUAUUACGCUAC | -0.918 ± 0.3 | –
ACAGAGCAAUAUUACGAGAA | -2.03 ± 0.45 | –
UACUAGCAAUAUUACGACCG | -0.634 ± 0.13 | 0.287 ± 0.16

Sequence | self-splicing fitness (ln) (30 °C) | self-splicing fitness (ln) (37 °C)
AUAGAGCAAUAUUACGGGCU | -4.11 ± 0.27 | -2.51 ± 0.29
AUACAGCAAUAUUACGAACA | -1.78 ± 0.17 | 0.157 ± 0.14
CUAGAGCAAUAUUACGGGAG | -0.494 ± 0.052 | -0.0261 ± 0.075
GUUGAGCAAUAUUACGCACG | -3.13 ± 0.43 | –
CCCUAGCAAUAUUACGGUUU | -3.31 ± 0.17 | -2.87 ± 0.17
UCGCAGCAAUAUUACGCCCG | -1.51 ± 0.35 | –
UACGAGCAAUAUUACGAAUC | -4.18 ± 0.34 | -2.03 ± 0.39
UCUGAGCAAUAUUACGGGGA | -2.89 ± 0.2 | -1.97 ± 0.19
AAACAGCAAUAUUACGGUCA | -0.86 ± 0.089 | 0.186 ± 0.097
UACGAGCAAUAUUACGUCCA | -2.8 ± 0.27 | -1.69 ± 0.27
CUUCAGCAAUAUUACGACUG | -0.803 ± 0.077 | -0.505 ± 0.092
AUCCAGCAAUAUUACGUAGU | -1.54 ± 0.074 | -0.703 ± 0.093
AUCCAGCAAUAUUACGUUAU | -1.36 ± 0.072 | -0.198 ± 0.089
AGGCAGCAAUAUUACGCGGC | -3.85 ± 0.24 | -2.39 ± 0.17
CACAAGCAAUAUUACGGGCA | -3.05 ± 0.14 | -1.39 ± 0.099
CAGUAGCAAUAUUACGUGGA | -2.9 ± 0.26 | -3.63 ± 0.42
CUUAAGCAAUAUUACGCCAU | -1.9 ± 0.33 | -2.35 ± 0.29
GGGGAGCAAUAUUACGCGGG | -2.7 ± 0.31 | -1.72 ± 0.39
UCAAAGCAAUAUUACGCAAC | -4.31 ± 0.42 | –
ACCUAGCAAUAUUACGAAUA | -2.75 ± 0.15 | -2.94 ± 0.18
UUCCAGCAAUAUUACGAGGC | -3.72 ± 0.35 | -2.58 ± 0.27
CACAAGCAAUAUUACGUCGG | -0.785 ± 0.05 | -0.422 ± 0.063
UGACAGCAAUAUUACGUAUC | -2.91 ± 0.097 | -2.57 ± 0.13
AUCAAGCAAUAUUACGCAUG | -3.06 ± 0.12 | -1.56 ± 0.098
UAAUAGCAAUAUUACGGCGG | -1.27 ± 0.15 | -0.245 ± 0.16

Sequence | self-splicing fitness (ln) (30 °C) | self-splicing fitness (ln) (37 °C)
UAAAAGCAAUAUUACGAUUA | 0.154 ± 0.073 | 0.0591 ± 0.088
UAGUAGCAAUAUUACGGGGA | -2.44 ± 0.33 | -3.25 ± 0.47
CGCUAGCAAUAUUACGGCUG | -1.13 ± 0.12 | -0.227 ± 0.14
UGUAAGCAAUAUUACGUGUG | -1.04 ± 0.085 | -0.237 ± 0.095
CGCCAGCAAUAUUACGUUUC | -3.41 ± 0.12 | -2.42 ± 0.24
GAACAGCAAUAUUACGGAGU | -2.35 ± 0.066 | -1.66 ± 0.1
UGGCAGCAAUAUUACGUUCU | 0.076 ± 0.06 | 0.0497 ± 0.069
AGUAAGCAAUAUUACGUCUU | -0.968 ± 0.072 | -0.0602 ± 0.078
AUAGAGCAAUAUUACGGGGG | -3.2 ± 0.27 | -2.72 ± 0.4
CAGAAGCAAUAUUACGCCAA | -3.35 ± 0.38 | –
UCGAAGCAAUAUUACGUUUG | -2.67 ± 0.13 | -1.88 ± 0.15
CUCAAGCAAUAUUACGCUCA | -3.34 ± 0.26 | -2.49 ± 0.24
UCGUAGCAAUAUUACGCCGA | -0.812 ± 0.31 | -2.03 ± 0.27
GUGGAGCAAUAUUACGUGCA | -2.14 ± 0.17 | -1.17 ± 0.16
GUUUAGCAAUAUUACGUCUC | -0.593 ± 0.19 | 0.43 ± 0.24
AUUCAGCAAUAUUACGGCCA | -0.32 ± 0.21 | -0.225 ± 0.21
AAACAGCAAUAUUACGCCGU | -2.54 ± 0.13 | -1.96 ± 0.11
GAUGAGCAAUAUUACGAGUG | -3.06 ± 0.17 | -0.833 ± 0.18
GCCCAGCAAUAUUACGCAGG | -3.19 ± 0.13 | -2.27 ± 0.15
GUUGAGCAAUAUUACGGCCU | -2.03 ± 0.18 | -0.897 ± 0.2
UAGAAGCAAUAUUACGGUGU | -3.23 ± 0.14 | -3.06 ± 0.15
AGCCAGCAAUAUUACGGGAC | -2.67 ± 0.22 | -2.7 ± 0.27
CCUGAGCAAUAUUACGUUGC | -2.07 ± 0.31 | -2.27 ± 0.43
GGUAAGCAAUAUUACGGGUC | -2.39 ± 0.24 | -1.81 ± 0.31
UCCUAGCAAUAUUACGUGUG | -2.41 ± 0.28 | -2.47 ± 0.22

Sequence | self-splicing fitness (ln) (30 °C) | self-splicing fitness (ln) (37 °C)
GCGCAGCAAUAUUACGCCAC | – | -1.17 ± 0.36
AUAGAGCAAUAUUACGUUUC | -3.32 ± 0.22 | -1.46 ± 0.24
AAUAAGCAAUAUUACGUGGA | -3.22 ± 0.22 | -2.42 ± 0.19
CCCUAGCAAUAUUACGCACU | -2.43 ± 0.15 | -2.64 ± 0.24
UUUAAGCAAUAUUACGAGUA | -1.72 ± 0.19 | -1.06 ± 0.19
CAUGAGCAAUAUUACGCGAU | -1.87 ± 0.18 | -1.61 ± 0.32
CAACAGCAAUAUUACGCUGG | -3.71 ± 0.18 | -2.01 ± 0.16
AAAGAGCAAUAUUACGAAAC | -3.23 ± 0.44 | -2.67 ± 0.48
CCUCAGCAAUAUUACGUGAG | -0.99 ± 0.057 | -0.881 ± 0.071
GCCCAGCAAUAUUACGAACA | -1.58 ± 0.12 | -1.46 ± 0.11
UAAGAGCAAUAUUACGGCUC | -1.82 ± 0.26 | -1.32 ± 0.32
UCGGAGCAAUAUUACGCUCU | -2.27 ± 0.36 | -1.68 ± 0.23
CGGAAGCAAUAUUACGCUAA | -2.74 ± 0.17 | -3.01 ± 0.29
AGAGAGCAAUAUUACGUAUU | -4.03 ± 0.35 | -3.1 ± 0.3
UUGCAGCAAUAUUACGCACC | -0.223 ± 0.47 | –
GCUCAGCAAUAUUACGUCGG | -2.71 ± 0.14 | -0.555 ± 0.15
UUUCAGCAAUAUUACGUGGG | -2.4 ± 0.14 | -1.95 ± 0.12
UUACAGCAAUAUUACGGCAU | -2.01 ± 0.074 | -0.552 ± 0.087
UAUUAGCAAUAUUACGCCAG | -1.17 ± 0.28 | –
GCAGAGCAAUAUUACGUUGA | -2.53 ± 0.2 | -2.15 ± 0.25
AUGAAGCAAUAUUACGUCGU | -0.896 ± 0.07 | -0.0581 ± 0.089
CUAGAGCAAUAUUACGUGAA | -3.81 ± 0.23 | -2.07 ± 0.26
AAUGAGCAAUAUUACGCCAU | -2.37 ± 0.39 | -1.9 ± 0.48
